Publication PMC3081313, “Factors Defining the Functional Oligomeric State of Escherichia coli DegP Protease” (PLoS ONE, 2011)

B1: proteolytically inactive DegP_(S210A) (enzyme, Escherichia coli, UniProt P0C0V0 27-474, looked up)
chain: AETSSATTAQQMPSLAPMLEKVMPSVVSINVEGSTTVNTPRMPRNFQQFFGDDSPFCQEGSPFQSSPFCQGGQGGNGGGQQQKFMALGSGVIIDADKGYVVTNNHVVDNATVIKVQLSDGRKFDAKMVGKDPRSDIALIQIQNPKNLTAIKMADSDALRVGDYTVAIGNPFGLGETVTSGIVSALGRSGLNAENYENFIQTDAAINRGNAGGALVNLNGELIGINTAILAPDGGNIGIGFAIPSNMVKNLTSQMVEYGQVKRGELGIMGTELNSELAKAMKVDAQRGAFVSQVLPNSSAAKAGIKAGDVITSLNGKPISSFAALRAQVGTMPVGSKLTLGLLRDGKQVNVNLELQQSSQNQVDSSSIFNGIEGAEMSNKGKDQGVVVNNVKTGTPAAQIGLKKGDVIIGANQQAVKNIAELRKVLDSKPSVLALNIQRGDSTIYLLMQ
notes: Escherichia coli DegP (HtrA, protease Do), periplasmic protease and chaperone, with the active-site change S210A; Number of copies depends on the sample: hexamer alone, 12-mer or 24-mer with substrate; also called HtrA_(S210A); DegP6

Tests used:
[1] = target: the molecule itself; test: SEC; DegP_(S210A) alone (42 µM monomer), incubated in 50 mM HEPES pH 7.3 at 37°C for 10 min; Superdex 200 10/300 GL in 50 mM HEPES pH 7.3, 150 mM NaCl at 4°C
[2] = target: the molecule itself; test: SEC; DegP_(S210A) mixed with MDH peptide fragments, 37°C 10 min; Superdex 200 in 50 mM HEPES pH 7.3, 150 mM NaCl at 4°C
[3] = target: the molecule itself; test: SEC; DegP_(S210A) (42 µM) mixed with full-length β-casein (42 µM; also in molar excess), 37°C 10 min in 50 mM HEPES pH 7.3; Superdex 200 in 50 mM HEPES pH 7.3, 150 mM NaCl at 4°C; peak fractions on SDS-PAGE
[4] = target: B1; test: SEC; DegP_(S210A) (94 µM) mixed with P^+Z^+ peptide (376 µM), 37°C 10 min; Superdex 200 in 50 mM HEPES pH 7.3, 150 mM NaCl at 4°C; details: both partners purified
[5] = target: B1; test: SEC; DegP_(S210A) (94 µM) mixed with P^−Z^+ peptide (376 µM), 37°C 10 min; Superdex 200 in 50 mM HEPES pH 7.3, 150 mM NaCl at 4°C; details: both partners purified

B1
stoichiometry N [1]: 6 | stoichiometry N [2]: 12 | stoichiometry N [3]: 24

B2: PZ model peptide P^+Z^+ (peptide)
peptide: ALVLDMMYGGMRGYQV
notes: also called PepP^+Z^+; source: synthetic peptide (GenScript USA Inc.)
binding result [4]: binds

B3: PZ model peptide P^−Z^+ (peptide)
peptide: ALELDMMYGGMRGYQV
notes: as P^+Z^+ but the P motif altered from ALV to ALE; source: synthetic peptide (GenScript USA Inc.)
binding result [5]: binds
